Assay results published in patent publication US20030198971A1.

Target: c-fos leucine zipper helix fused via (Gly4Ser)3 linker to BLIP-D49A, fused via a similar linker to β-lactamase (tri-partite cis-inhibited β-lactamase fusion) (UniProt P01100)
Test: cell-based or functional assay

Substance	% plating efficiency on 10 µg/ml ampicillin, 100 µM IPTG [%]	% plating efficiency on 10 µg/ml ampicillin, 100 µM IPTG, c-jun-trx co-expressed as inhibitor [%]	% plating efficiency on 25 µg/ml ampicillin, 100 µM IPTG [%]	% plating efficiency on 25 µg/ml ampicillin, 100 µM IPTG, c-jun-trx co-expressed as inhibitor [%]	% plating efficiency on 50 µg/ml ampicillin, 100 µM IPTG [%]	% plating efficiency on 50 µg/ml ampicillin, 100 µM IPTG, c-jun-trx co-expressed as inhibitor [%]	% plating efficiency on 100 µg/ml ampicillin, 100 µM IPTG [%]	% plating efficiency on 100 µg/ml ampicillin, 100 µM IPTG, c-jun-trx co-expressed as inhibitor [%]	fold reduction of plating efficiency on 100 µg/ml ampicillin by co-expressed c-jun-trx [fold]
c-jun leucine zipper helix fused via (Gly4Ser)3 linker to BIP (β-lactamase-S70A) (from UniProt P05412 276-315; P62593 24-286)	100	100	100	100	100	9	100	0.08	> 1000
BLIP-F142A without amino-terminal c-jun helix (from UniProt P35804 37-201)	100		4		< 0.01		< 0.01		
BIP (β-lactamase-S70A) without amino-terminal c-jun helix (from UniProt P62593 24-286)	100		0.7		< 0.01		< 0.01		
c-jun leucine zipper helix fused via (Gly4Ser)3 linker to BLIP-F142A (from UniProt P05412 276-315; P35804 37-201)	100	100	100	100	100	75	100	0.5	
